Experimental data as given in patent US8241610B2, “Adjuvant combinations of liposomes and mycobacterial lipids for immunization compositions and vaccines” (Statens Serum Institut, priority 2003, dated 2012).

How the values were obtained:
[1] = tested on: blood lymphocytes; assay: IFN-gamma release from blood lymphocytes of immunized mice re-stimulated in vitro with antigen (ELISA); conditions: mouse, in vivo, sc
[2] = tested on: antigen-specific IgG; set-up: species or system mice; conditions: mouse, in vivo, sc

## Tetanus toxoid: Tetanus toxoid from Statens Serum Institut; given in total lipids/DDA
[1]
  Immune response: release of IFN-gamma from blood lymphocytes: 52500 ± 13500

B1: OVA: Ovalbumin, Sigma Aldrich; given in total lipids/DDA (protein, UniProt P01012 2-386, looked up)
Ovalbumin: GSIGAASMEFCFDVFKELKVHHANENIFYCPIAIMSALAMVYLGAKDSTRTQINKVVRFDKLPGFGDSIEAQCGTSVNVHSSLRDILNQITKPNDVYSFSLASRLYAEERYPILPEYLQCVKELYRGGLEPINFQTAADQARELINSWVESQTNGIIRNVLQPSSVDSQTAMVLVNAIVFKGLWEKAFKDEDTQAMPFRVTEQESKPVQMMYQIGLFRVASMASEKMKILELPFASGTMSMLVLLPDEVSGLEQLESIINFEKLTEWTSSNVMEERKIKVYLPRMKMEEKYNLTSVLMAMGITDVFSSSANLSGISSAESLKISQAVHAAHAEINEAGREVVGSAEAGVDAASVSEEFRADHPFLFCIKHIATNAVLFFGRCVSP
[2]
  IgG1, antigen-specific levels (midpoint titres): 2500
  IgG2a, antigen-specific levels (midpoint titres): <100
[1]
  Immune response: release of IFN-gamma from blood lymphocytes: 793 ± 81
